Assays:
Assay in all cases: cell-based or functional assay
[1] = molecular target: HIV-1 Env of strain 1056_10_TA11_1826 (HIV-1)
[2] = molecular target: HIV-1 Env of strain 231965.c01 (HIV-1)
[3] = molecular target: HIV-1 Env of strain 3016.v5.c45 (HIV-1)
[4] = molecular target: HIV-1 Env of strain 6811.v7.c18 (HIV-1)
[5] = molecular target: HIV-1 Env of strain 703357.C02 (HIV-1)
[6] = molecular target: HIV-1 Env of strain 89-F1_2_25 (HIV-1)
[7] = molecular target: HIV-1 Env of strain AC10.0.29 (HIV-1)
[8] = molecular target: HIV-1 Env of strain C1080.c03 (HIV-1)
[9] = molecular target: HIV-1 Env of strain CAAN5342.A2 (HIV-1)
[10] = molecular target: HIV-1 Env of strain CAP45.2.00.G3 (HIV-1)
[11] = molecular target: HIV-1 Env of strain CNE17 (HIV-1)
[12] = molecular target: HIV-1 Env of strain CNE20 (HIV-1)
[13] = molecular target: HIV-1 Env of strain CNE21 (HIV-1)
[14] = molecular target: HIV-1 Env of strain CNE58 (HIV-1)
[15] = molecular target: HIV-1 Env of strain Ce0682_E4 (HIV-1)
[16] = molecular target: HIV-1 Env of strain Ce2010_F5 (HIV-1)
[17] = molecular target: HIV-1 Env of strain Q23.17 (HIV-1)
[18] = molecular target: HIV-1 Env of strain Q259.d2.17 (HIV-1)
[19] = molecular target: HIV-1 Env of strain R2184.c04 (HIV-1)
[20] = molecular target: HIV-1 Env of strain SC422661.8 (HIV-1)
[21] = molecular target: HIV-1 Env of strain T250-4 (HIV-1)
[22] = molecular target: HIV-1 Env of strain THRO4156.18 (HIV-1)
[23] = molecular target: HIV-1 Env of strain X1193_c1 (HIV-1)
[24] = molecular target: HIV-1 Env of strain ZM53M.PB12 (HIV-1)
[25] = molecular target: HIV-1 strain 0815.v3.c3 envelope (gp120) (HIV-1)
[26] = molecular target: HIV-1 strain 231965.c01 envelope (gp120) (HIV-1)
[27] = molecular target: HIV-1 strain 3016.v5.c45 envelope (gp120) (HIV-1)
[28] = molecular target: HIV-1 strain 3718.v3.c11 envelope (gp120) (HIV-1)
[29] = molecular target: HIV-1 strain 6480.v4.c25 envelope (gp120) (HIV-1)
[30] = molecular target: HIV-1 strain 703357.C02 envelope (gp120) (HIV-1)
[31] = molecular target: HIV-1 strain 89-F1_2_25 envelope (gp120) (HIV-1)
[32] = molecular target: HIV-1 strain 928-28 envelope (gp120) (HIV-1)
[33] = molecular target: HIV-1 strain CAP45.2.00.G3 envelope (gp120) (HIV-1)
[34] = molecular target: HIV-1 strain Ce0393_C3 envelope (gp120) (HIV-1)
[35] = molecular target: HIV-1 strain Ce2060_G9 envelope (gp120) (HIV-1)
[36] = molecular target: HIV-1 strain Du172.17 envelope (gp120) (HIV-1)
[37] = molecular target: HIV-1 strain Q23.17 envelope (gp120) (HIV-1)
[38] = molecular target: HIV-1 strain Q259.d2.17 envelope (gp120) (HIV-1)
[39] = molecular target: HIV-1 strain Q461.e2 envelope (gp120) (HIV-1)
[40] = molecular target: HIV-1 strain Q842.d12 envelope (gp120) (HIV-1)
[41] = molecular target: HIV-1 strain QH0692.42 envelope (gp120) (HIV-1)
[42] = molecular target: HIV-1 strain R1166.c01 envelope (gp120) (HIV-1)
[43] = molecular target: HIV-1 strain RHPA4259.7 envelope (gp120) (HIV-1)
[44] = molecular target: HIV-1 strain T251-18 envelope (gp120) (HIV-1)
[45] = molecular target: HIV-1 strain T255-34 envelope (gp120) (HIV-1)
[46] = molecular target: HIV-1 strain T278-50 envelope (gp120) (HIV-1)
[47] = molecular target: HIV-1 strain TRJO4551.58 envelope (gp120) (HIV-1)
[48] = molecular target: HIV-1 strain X2131_C1_B5 envelope (gp120) (HIV-1)
[49] = molecular target: HIV-1 strain ZM214M.PL15 envelope (gp120) (HIV-1)
[50] = molecular target: HIV-1 strain ZM233M.PB6 envelope (gp120) (HIV-1)

B1: NIH45-46^G54Y IgG (antibody, name in Kabat numbering, V domains shown)
VH: QVRLSQSGGQMKKPGESMRLSCRASGYEFLNCPINWIRLAPGRRPEWMGWLKPRYGAVNYARKFQGRVTMTRDVYSDTAFLELRSLTSDDTAVYFCTRGKYCTARDYYNWDFEHWGRGAPVTVSS
VL: EIVLTQSPATLSLSPGETAIISCRTSQSGSLAWYQQRPGQAPRLVIYSGSTRAAGIPDRFSGSRWGADYNLSISNLESGDFGVYYCQQYEFFGQGTKVQVDI
Question: With B1 as the binder, how does the neutralization IC50 [1] read?
Answer: The neutralization IC50 was 0.044 µg/mL.

Question: What about the neutralization IC50 [2] of the same binder?
Answer: The neutralization IC50 was 0.025 µg/mL.

Question: And the neutralization IC50 [3]?
Answer: Its neutralization IC50 is 17.9 µg/mL.

Question: And the neutralization IC50 [4]?
Answer: The neutralization IC50 was 0.011 µg/mL.

Question: What about the neutralization IC50 [5] of the same binder?
Answer: The neutralization IC50 was 5.6 µg/mL.

Question: And the neutralization IC50 [6]?
Answer: Its neutralization IC50 is greater than 50 µg/mL.

Question: And the neutralization IC50 [7]?
Answer: Its neutralization IC50 is 0.19 µg/mL.

Question: And the neutralization IC50 [8]?
Answer: The neutralization IC50 was 0.29 µg/mL.

Question: And the neutralization IC50 [9]?
Answer: The neutralization IC50 was 0.1 µg/mL.

Question: What about the neutralization IC50 [10] of the same binder?
Answer: The neutralization IC50 was greater than 50 µg/mL.

Question: And the neutralization IC50 [11]?
Answer: The neutralization IC50 was 0.073 µg/mL.

Question: And the neutralization IC50 [12]?
Answer: The neutralization IC50 was 0.33 µg/mL.

Question: And the neutralization IC50 [13]?
Answer: The neutralization IC50 was 0.07 µg/mL.

Question: And the neutralization IC50 [14]?
Answer: Its neutralization IC50 is 0.04 µg/mL.

Question: What about the neutralization IC50 [15] of the same binder?
Answer: The neutralization IC50 was 0.017 µg/mL.

Question: What about the neutralization IC50 [16] of the same binder?
Answer: The neutralization IC50 was 0.049 µg/mL.

Question: And the neutralization IC50 [17]?
Answer: The neutralization IC50 was 0.02 µg/mL.

Question: What about the neutralization IC50 [18] of the same binder?
Answer: The neutralization IC50 was 0.009 µg/mL.

Question: What about the neutralization IC50 [19] of the same binder?
Answer: The neutralization IC50 was 0.015 µg/mL.

Question: And the neutralization IC50 [20]?
Answer: The neutralization IC50 was 0.04 µg/mL.

Question: What about the neutralization IC50 [21] of the same binder?
Answer: Its neutralization IC50 is greater than 50 µg/mL.

Question: What about the neutralization IC50 [22] of the same binder?
Answer: Its neutralization IC50 is 0.66 µg/mL.

Question: And the neutralization IC50 [23]?
Answer: The neutralization IC50 was 0.006 µg/mL.

Question: And the neutralization IC50 [24]?
Answer: The neutralization IC50 was 0.06 µg/mL.

Question: What about the neutralization IC80 [25] of the same binder?
Answer: The neutralization IC80 was 0.015 µg/mL.

Question: What about the neutralization IC80 [26] of the same binder?
Answer: Its neutralization IC80 is 0.054 µg/mL.

Question: And the neutralization IC80 [27]?
Answer: The neutralization IC80 was greater than 50 µg/mL.

Question: And the neutralization IC80 [28]?
Answer: Its neutralization IC80 is 3.85 µg/mL.

Question: And the neutralization IC80 [29]?
Answer: Its neutralization IC80 is 0.051 µg/mL.

Question: What about the neutralization IC80 [30] of the same binder?
Answer: The neutralization IC80 was 30.6 µg/mL.

Question: And the neutralization IC80 [31]?
Answer: The neutralization IC80 was greater than 50 µg/mL.

Question: What about the neutralization IC80 [32] of the same binder?
Answer: Its neutralization IC80 is 0.33 µg/mL.

Question: What about the neutralization IC80 [33] of the same binder?
Answer: The neutralization IC80 was greater than 50 µg/mL.

Question: What about the neutralization IC80 [34] of the same binder?
Answer: Its neutralization IC80 is 0.134 µg/mL.

Question: What about the neutralization IC80 [35] of the same binder?
Answer: Its neutralization IC80 is 0.068 µg/mL.

Question: And the neutralization IC80 [36]?
Answer: The neutralization IC80 was greater than 50 µg/mL.

Question: What about the neutralization IC80 [37] of the same binder?
Answer: The neutralization IC80 was 0.06 µg/mL.

Question: And the neutralization IC80 [38]?
Answer: The neutralization IC80 was 0.034 µg/mL.

Question: What about the neutralization IC80 [39] of the same binder?
Answer: Its neutralization IC80 is 0.103 µg/mL.

Question: What about the neutralization IC80 [40] of the same binder?
Answer: The neutralization IC80 was 0.045 µg/mL.

Question: And the neutralization IC80 [41]?
Answer: The neutralization IC80 was 1.5 µg/mL.

Question: What about the neutralization IC80 [42] of the same binder?
Answer: The neutralization IC80 was 0.84 µg/mL.

Question: And the neutralization IC80 [43]?
Answer: The neutralization IC80 was 0.02 µg/mL.

Question: What about the neutralization IC80 [44] of the same binder?
Answer: Its neutralization IC80 is 1.16 µg/mL.

Question: What about the neutralization IC80 [45] of the same binder?
Answer: Its neutralization IC80 is 0.174 µg/mL.

Question: What about the neutralization IC80 [46] of the same binder?
Answer: The neutralization IC80 was greater than 50 µg/mL.

Question: And the neutralization IC80 [47]?
Answer: Its neutralization IC80 is 0.07 µg/mL.

Question: What about the neutralization IC80 [48] of the same binder?
Answer: The neutralization IC80 was 0.39 µg/mL.

Question: And the neutralization IC80 [49]?
Answer: Its neutralization IC80 is 0.23 µg/mL.

Question: And the neutralization IC80 [50]?
Answer: The neutralization IC80 was 0.78 µg/mL.

B2: NIH45-46^G54W(HC), S28Y(LC) (antibody, V domains shown)
VH: QVRLSQSGGQMKKPGESMRLSCRASGYEFLNCPINWIRLAPGRRPEWMGWLKPRWGAVNYARKFQGRVTMTRDVYSDTAFLELRSLTSDDTAVYFCTRGKYCTARDYYNWDFEHWGRGAPVTVSS
VL: EIVLTQSPATLSLSPGETAIISCRTSQYGSLAWYQQRPGQAPRLVIYSGSTRAAGIPDRFSGSRWGADYNLSISNLESGDFGVYYCQQYEFFGQGTKVQVDI
Question: Which results are given for B2?
Answer: IC50, pseudovirus neutralization [1]: 0.057 µg/mL; IC50, pseudovirus neutralization [2]: 0.001 µg/mL; IC50, pseudovirus neutralization [3]: 0.006 µg/mL; IC50, pseudovirus neutralization [4]: 0.026 µg/mL; IC50, pseudovirus neutralization [6]: > 50 µg/mL; IC50, pseudovirus neutralization [7]: 0.118 µg/mL; IC50, pseudovirus neutralization [8]: 0.154 µg/mL; IC50, pseudovirus neutralization [9]: 0.078 µg/mL; IC50, pseudovirus neutralization [10]: 0.02 µg/mL; IC50, pseudovirus neutralization [11]: 0.064 µg/mL; IC50, pseudovirus neutralization [12]: 0.001 µg/mL; IC50, pseudovirus neutralization [13]: 0.001 µg/mL; IC50, pseudovirus neutralization [14]: 0.016 µg/mL; IC50, pseudovirus neutralization [15]: 0.007 µg/mL; IC50, pseudovirus neutralization [16]: 0.03 µg/mL; IC50, pseudovirus neutralization [17]: 0.015 µg/mL; IC50, pseudovirus neutralization [18]: 0.001 µg/mL; IC50, pseudovirus neutralization [19]: 0.008 µg/mL; IC50, pseudovirus neutralization [20]: 0.024 µg/mL; IC50, pseudovirus neutralization [21]: 1.55 µg/mL; IC50, pseudovirus neutralization [22]: 0.685 µg/mL; IC50, pseudovirus neutralization [23]: 0.008 µg/mL; IC50, pseudovirus neutralization [24]: 0.091 µg/mL
